Assay results from patent US20140213531A1.

Biological target: Tryptase, from human lung (human) (UniProt Q15661)
Experiment: enzyme inhibition, pNA substrate

Sequence of Tryptase, from human lung (human) (Q15661 31-275 limits assumed): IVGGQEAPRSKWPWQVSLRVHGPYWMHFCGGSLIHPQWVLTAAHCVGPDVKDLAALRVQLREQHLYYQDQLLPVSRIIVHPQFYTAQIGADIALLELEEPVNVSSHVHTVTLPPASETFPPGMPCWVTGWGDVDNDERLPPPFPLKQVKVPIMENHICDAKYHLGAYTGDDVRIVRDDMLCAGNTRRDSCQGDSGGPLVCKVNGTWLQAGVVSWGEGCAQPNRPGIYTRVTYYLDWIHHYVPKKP

% inhibition at 100 µM: 5.6%
B1: Example 93 (peptide)
peptide: XCTASIPPQCS
HELM: PEPTIDE1{[Nle].C.T.A.S.I.P.P.Q.C.S.[dP].P}$PEPTIDE1,PEPTIDE1,2:R3-10:R3|PEPTIDE1,PEPTIDE1,1:R1-13:R2$$$V2.0
SMILES: CCCC[C@@H]1NC(=O)[C@@H]2CCCN2C(=O)[C@H]2CCCN2C(=O)[C@H](CO)NC(=O)[C@@H]2CSSC[C@H](NC1=O)C(=O)N[C@@H]([C@@H](C)O)C(=O)N[C@@H](C)C(=O)N[C@@H](CO)C(=O)N[C@@H]([C@@H](C)CC)C(=O)N1CCC[C@H]1C(=O)N1CCC[C@H]1C(=O)N[C@@H](CCC(N)=O)C(=O)N2
